Source: the supplement of paper PMC9170038

System: MS2 coat protein
Assay: apparent KD of MS2 coat protein; designed switch direction (-1 OFF switch, 1 ON switch): -1; higher = weaker reporter binding
Method in brief: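 Transcription of designed RNA switches on Illumina chips was done by stalled E. coli RNA polymerase. SNAP-549-labelled MS2 coat protein was then titrated in doubling steps from 0.7 or 1.5 nM to 3 µM, with steps of 0.8–1.5 h at the lowest and 10–20 min at the highest concentration. The per-design median over clusters of curve-fitted normalised fluorescence is reported as apparent KD.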

[1] = input ligand: microRNA oligo, concentration not stated
[2] = Eterna round: R95, input ligand: microRNA oligo, concentration not stated

| Sequence | apparent KD of MS2 coat protein (input ligand: FMN 200 uM) | apparent KD of MS2 coat protein [1] | apparent KD of MS2 coat protein (input ligand: none) | apparent KD of MS2 coat protein (Eterna round: R95, input ligand: FMN 200 uM) | apparent KD of MS2 coat protein [2] | apparent KD of MS2 coat protein (Eterna round: R95, input ligand: none) |
| --- | --- | --- | --- | --- | --- | --- |
| ACGAUGACCGAAAAGUGUUAACUGACAUGAGGAUCACCCAUGUAGGAUAUGGCUACGAAAAGUAGUCAGAAGGACAUGUCAUCA [Omei Exc(NG) 3 Av7] (Eterna round: R96, puzzle: Exclusion NG 3) | 17.8 nM | 13.1 nM | 17.5 nM |  |  |  |
| GCGAAAACAAACAGGUGAAACAUGAGGAUCACCCAUGUCCUCAUUUGCUCGUCUUAUAAGCUAUGCGAAAGCAUAGC [Mat - Sensor v3 - turn-off var 1 - Eli Mod - D55] (puzzle: Sensor v3, turn-off variant 1) |  |  |  | 283 nM | 200 nM | 348 nM |
| CCAUGGGAGCGAGGAUAUAGACCAUGGGAAGAUCUAGAAGGCGCUGACAUGAGGAUCACCCAUGUGUUCAUGAGGAGGUGGACA (Eterna round: R96, puzzle: Exclusion NG 1) | 73.7 nM | 74.4 nM | 47.1 nM |  |  |  |
| AGCUGUGGCCGAGGAUAUCUAAUAGUCCCAACCGAAAUAUAAUCGGACAUGAGGAUCACCCAUGUAGAGAAGGCGGUCUCAGCA [Eli eng2 - 069] (Eterna round: R96, puzzle: Exclusion NG 2) | 286 nM | 102 nM | 113 nM |  |  |  |
| UACAUGAGGAUCACCCAUGUUUUGUCGUGUUUGGUACCCGUUUAGGAUAUCGUGUUAUUGUAUCGCGAGAAGGAGAGUAUCUUU [Excl-NG3-LRO09] (Eterna round: R96, puzzle: Exclusion NG 3) | 30.9 nM | 27.1 nM | 27 nM |  |  |  |
| UUCACAUGGACAUAAGAUCACAUGAGGAUCACCCAUGUGAAUAACAAGCUUUUUGCUCGUCUUAUGUCCAAUAAUAA [Stov1/14-A1] (Eterna round: R97, puzzle: Sensor, turn-off variant 1) | 14.1 nM |  | 12.2 nM |  |  |  |
| GCUGAAGGGUCGAUUACCAACAUGAGGAUCACCCAUGUUCGGAAUAAUUACAGGUUCGCUCGUCUCGAUGAAAGUCC [Eternabot (L1) Solution 19] (Eterna round: R97, puzzle: Sensor, turn-off variant 1) | 19.3 nM |  | 21.7 nM |  |  |  |
| UAUUAGCAAGUAAGGUCCCACAUGAGGAUCACCCAUGUGCUCGUCUCCUCAGGUACGGAGCGGAAGCUCCCGAUAUG [Sensor-V1 #94] (Eterna round: R97, puzzle: Sensor, turn-off variant 1) | 87 nM |  | 102 nM |  |  |  |
| UCUUAGCAAGCAAAUGGGUACAUGAGGAUCACCCAUGUGCUCGUCUUAUAAGGUACUGUGACGAAAGUCACGGUACC [mod--Eli8] (Eterna round: R97, puzzle: Sensor, turn-off variant 1) | 24.7 nM |  | 19.5 nM |  |  |  |
| GCGUCGAGUGUGAGGAUAUGCUGGUCCUUGGAUCAGCAGAAGGCACAUGAGGAUCACCCAUGUGAAAACGAUGC [Mat - Exclusion 4 - JL Mod - D68] (puzzle: Brourd's mod of Exclusion 4) |  |  |  |  | 18.8 nM |  |
| UAUAUAUAGUAAGGAUAUGUAUUUAUUUUAUUAACAGAAGGUACUGACAUGAGGAUCACCCAUGUUUUAGUGUGGGCAUGUAGA [JMF's solution 25] (Eterna round: R96, puzzle: Exclusion NG 1) |  | 77.7 nM |  |  |  |  |
| AGUACUAUCACGAAAGUGUUAGUACAAUAAGCUUGUGAAACAUGAGGAUCACCCAUGUCCUCAUAAGCUCGUCUUAU [salish99_TOv2_r3_019] (Eterna round: R96, puzzle: Sensor v3, turn-off variant 2) | 15.8 nM | 467 nM | 17.8 nM |  |  |  |
| ACACAGCGAGGAUAUACAUGAGGAUCACCCAUGUGGUGGCAGUUACGGUAGGACUAGUGUAGAAGGUGCAGUGG [EX3 #29] (Eterna round: R97, puzzle: Exclusion 3) | 485 nM |  | 800 nM |  |  |  |
